Experimental findings from US20180015152 are described below.

Series [1] deals with T1, cell permeable human non-Casp1 cleavable Sirt1 polypeptide (NC-Sirt1).
T1 chain: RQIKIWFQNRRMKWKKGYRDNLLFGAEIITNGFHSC

For series [2], the target named is T2, sirtuin 1 (human Sirt1, endogenous in human aortic endothelial cells), Q96EB6.
T2 chain: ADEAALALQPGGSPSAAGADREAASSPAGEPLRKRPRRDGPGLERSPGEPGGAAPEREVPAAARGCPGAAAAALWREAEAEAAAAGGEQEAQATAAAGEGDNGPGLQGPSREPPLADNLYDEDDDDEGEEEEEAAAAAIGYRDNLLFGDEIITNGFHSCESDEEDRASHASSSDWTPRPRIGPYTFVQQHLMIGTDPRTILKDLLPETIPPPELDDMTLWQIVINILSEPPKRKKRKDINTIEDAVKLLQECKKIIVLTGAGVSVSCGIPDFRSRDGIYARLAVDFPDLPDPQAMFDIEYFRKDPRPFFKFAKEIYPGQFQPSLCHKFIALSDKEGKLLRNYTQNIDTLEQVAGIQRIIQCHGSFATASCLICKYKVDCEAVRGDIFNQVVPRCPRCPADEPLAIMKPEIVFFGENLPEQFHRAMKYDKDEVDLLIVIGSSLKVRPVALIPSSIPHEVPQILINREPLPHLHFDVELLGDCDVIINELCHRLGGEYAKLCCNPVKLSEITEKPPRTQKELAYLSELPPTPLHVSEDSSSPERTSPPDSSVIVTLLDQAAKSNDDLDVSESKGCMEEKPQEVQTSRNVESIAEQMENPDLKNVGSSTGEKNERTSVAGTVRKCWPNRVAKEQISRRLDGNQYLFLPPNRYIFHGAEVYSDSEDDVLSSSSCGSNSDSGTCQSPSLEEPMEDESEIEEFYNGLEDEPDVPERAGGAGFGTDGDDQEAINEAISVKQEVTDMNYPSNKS

B1: caspase-1 (human, endogenous in human aortic endothelial cells) (protein)
chain: NPAMPTSSGSEGNVKLCSLEEAQRIWKQKSAEIYPIMDKSSRTRLALIICNEEFDSIPRRTGAEVDITGMTMLLQNLGYSVDVKKNLTASDMTTELEAFAHRPEHKTSDSTFLVFMSHGIREGICGKKHSEQVPDILQLNAIFNMLNTKNCPSLKDKPKVIIIQACRGDSPGVVWFKDSVGVSGNLSLPTTEEFEDDAIKKAHIEKDFIAFCSSTPDNVSWRHPTMGSVFIGRLIEHMQEYACSCDVEEIFRKVRFSFEQPDGRAQMPTTERVTLTRCFYLFPGH
In the case of B1, in series [1], the “cleaved-Sirt1 expression by Western blot with anti-Sirt1 antibody in oxLDL-treated HAECs” value was “NC-Sirt1 dose-dependently decreases the cleavage of Sirt1 induced by oxLDL”. The “cleaved-Sirt1 expression by Western blot in HAECs treated with oxLDL” value in series [2] was “oxLDL induced the expression of cleaved-Sirt1 by 2.4-folds in HAECs”.
